Laboratory results from patent publication US20190077860A1 (EISAI R AND D MANAGEMENT, published 2019).

How the values were obtained:
[1] = biological target: T1, mouse EphA4 extracellular region-SEAP-His protein (mouse); experiment: competition ELISA, competitor biotinylated mouse Ephrin B2-Fc
Method: Antibody A-Fab and antibody A-F(ab′)₂ obtained in Example 5 were evaluated for their inhibitory activity against the binding between EphA4 and its ligand according to the following steps. Each well of a 96-well plate (Nunc) was coated with an anti-alkaline phosphatase antibody (Thermo Fisher Scientific). After incubation overnight at 4° C., each well was blocked with 1% BlockAce (DS Pharma Biomedical) at room temperature for 1 hour. After washing with 0.05% Tween 20/PBS (Thermo Fisher Scientific) three times, the mouse EphA4 extracellular region-SEAP-His protein obtained by the method of Example 1 was added (final concentration: 10 nM) to each well and incubated at room temperature for 1 hour. After washing three times, a ligand and serially diluted antibody A (0, 0.003, 0.01, 0.03, 0.1, 0.3, 1, 3, 10, 30, 100, 300, 1000, and 3000 nM), antibody A-Fab (0, 0.003, 0.01, 0.03, 0.1, 0.3, 1, 3, 10, 30, 100, 300, 1000, and 3000 nM), antibody A-F(ab′)₂ (0, 0.003, 0.01, 0.03, 0.1, 0.3, 1, 3, 10, 30, 100, 300, 1000, and 3000 nM), or the EphA4 inhibitor KYL peptide ([…], 0, 0.0003, 0.001, 0.003, 0.01, 0.03, 0.1, 0.3, 1, 3, 10, 30, 100, 300, 1000, and 3000 μM, its synthesis was outsourced to Toray Research Center) were added to each well. The ligand used was biotinylated mouse Ephrin B2-Fc chimera (R&D Systems, final concentration: 2.5 nM). After incubation at room temperature for 1 hour and subsequent washing three times, horseradish peroxidase-labeled streptavidin (GE Healthcare) was added thereto and incubated at room temperature for 1 hour. After washing three times, a TMBZ (3,3′,5,5′-tetramethylbenzidine, Sigma-Aldrich) solution was added to each well and incubated at room temperature for 2 minutes. An equal amount of a reaction stopping solution (1N H₂SO₄, Wako Pure Chemical Industries) was added to each well. The absorbance at 450 nm was read using a microplate reader (Molecular Devices or PerkinElmer).
Antibody A and antibody A-F(ab′)₂ had 1000 or more times the activity of the KYL peptide, and antibody A-Fab also had 10 or more times the activity of KYL peptide.

[2] = biological target: T1, mouse EphA4 extracellular …; experiment: SPR (Biacore T200), EphA4-SEAP-His captured by anti-His antibody; F(ab')2 (bivalent), not Fab
Method: (§1) Next, the binding affinity of antibody A-Fab and antibody A-F(ab′)₂ for mouse and human EphA4 was determined by surface plasmon resonance (SPR) using Biacore T200 (GE Healthcare). Antibody A obtained in Example 1 was used as a control for the comparison of each fragment. First, an anti-His tag antibody was immobilized on sensor chip CM5. The immobilization of the anti-His tag antibody on sensor chip CM5 was performed by the amine coupling method using N-hydroxysuccinimide (NHS) and N-ethyl-N′-(3-dimethylaminopropyl)carbodiimide hydrochloride (EDC). Ethanolamine was used in blocking (the sensor chip and the reagents for immobilization were all manufactured by GE Healthcare). The antibody was diluted with a buffer solution for immobilization (10 mM sodium acetate, pH 4.5) into 3 μg/mL and immobilized on the sensor chip according to the protocol attached to Biacore T200.
(§2) Mouse or human EphA4 extracellular region-SEAP-His protein was diluted with a running buffer solution HBS-EP (GE Healthcare, BR-1001-88), injected onto a flow cell for 120 seconds, and captured (amount of the protein captured: approximately 10 to 20 RU). Subsequently, antibody A (50, 16.7, 5.6, 1.9, 0.6, and 0 nM), antibody A-Fab (500, 166.7, 55.6, 18.5, 6.2, and 0 nM), or antibody A-F(ab′)₂ (50, 16.7, 5.6, 1.9, 0.6, and 0 nM) serially diluted using HBS-EP was added to the sensor chip for 120 seconds. […]

[3] = biological target: T2, human EphA4 extracellular region-SEAP-His protein (human, UniProt P54764 20-547); experiment: as above
T2 construct: also called hEphA4-SEAP-His
T2 sequence (P54764 20-547): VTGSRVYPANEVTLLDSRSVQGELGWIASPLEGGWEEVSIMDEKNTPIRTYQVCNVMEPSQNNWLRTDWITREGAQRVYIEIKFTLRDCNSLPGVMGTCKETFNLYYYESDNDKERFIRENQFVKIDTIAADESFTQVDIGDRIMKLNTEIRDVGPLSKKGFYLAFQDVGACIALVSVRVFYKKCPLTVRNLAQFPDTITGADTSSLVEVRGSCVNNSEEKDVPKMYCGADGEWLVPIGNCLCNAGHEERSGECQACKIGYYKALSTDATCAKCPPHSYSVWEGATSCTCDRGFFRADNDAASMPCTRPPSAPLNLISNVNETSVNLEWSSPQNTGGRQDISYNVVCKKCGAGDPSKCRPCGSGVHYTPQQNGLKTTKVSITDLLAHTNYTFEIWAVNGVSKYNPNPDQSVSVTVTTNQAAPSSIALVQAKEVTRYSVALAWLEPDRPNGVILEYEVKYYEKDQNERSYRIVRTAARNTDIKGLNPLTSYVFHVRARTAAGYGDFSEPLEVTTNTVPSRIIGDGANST
Method: as §1, §2

[4] = biological target: T2, human EphA4 extracellular …; experiment: SPR (Biacore T200), human EphA4 extracellular region-SEAP-His captured on an anti-His antibody CM5 chip, F(ab')2 as analyte at 0.6-50 nM, 1:1 fit
Method: as §1, §2

[5] = biological target: T1, mouse EphA4 extracellular …; experiment: SPR (Biacore T200), mouse EphA4 extracellular region-SEAP-His captured on an anti-His antibody CM5 chip, F(ab')2 as analyte at 0.6-50 nM, 1:1 fit
Method: as §1, §2

T1 sequence (chain, as listed by the source limits assumed): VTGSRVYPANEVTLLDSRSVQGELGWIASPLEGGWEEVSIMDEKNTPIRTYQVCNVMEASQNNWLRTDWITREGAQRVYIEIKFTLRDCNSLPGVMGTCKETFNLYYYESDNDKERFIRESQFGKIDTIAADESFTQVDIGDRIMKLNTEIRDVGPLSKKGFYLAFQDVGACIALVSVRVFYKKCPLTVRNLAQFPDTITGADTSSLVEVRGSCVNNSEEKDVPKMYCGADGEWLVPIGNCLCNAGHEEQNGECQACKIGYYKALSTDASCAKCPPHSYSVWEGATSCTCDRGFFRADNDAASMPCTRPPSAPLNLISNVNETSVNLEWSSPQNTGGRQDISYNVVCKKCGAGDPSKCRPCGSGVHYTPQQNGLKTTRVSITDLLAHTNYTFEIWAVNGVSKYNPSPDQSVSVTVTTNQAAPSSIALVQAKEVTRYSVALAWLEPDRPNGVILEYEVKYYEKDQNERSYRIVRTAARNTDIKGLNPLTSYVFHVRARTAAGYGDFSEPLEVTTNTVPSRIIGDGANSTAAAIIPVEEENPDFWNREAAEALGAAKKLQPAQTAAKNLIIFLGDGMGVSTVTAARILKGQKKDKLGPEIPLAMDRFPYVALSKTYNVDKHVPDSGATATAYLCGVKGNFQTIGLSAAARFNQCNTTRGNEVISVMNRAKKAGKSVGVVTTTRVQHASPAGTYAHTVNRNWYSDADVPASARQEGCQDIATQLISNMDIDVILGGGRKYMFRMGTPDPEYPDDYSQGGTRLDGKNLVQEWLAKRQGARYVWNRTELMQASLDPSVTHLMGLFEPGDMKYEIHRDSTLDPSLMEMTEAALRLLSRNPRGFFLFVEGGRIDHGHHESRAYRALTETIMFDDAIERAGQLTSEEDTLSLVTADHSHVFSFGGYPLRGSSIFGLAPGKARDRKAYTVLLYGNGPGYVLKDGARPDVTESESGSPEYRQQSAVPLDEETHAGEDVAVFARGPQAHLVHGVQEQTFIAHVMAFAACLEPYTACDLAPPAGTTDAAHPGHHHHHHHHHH

IC50 [1]: 2900 pM
fold activity against KYL peptide [1]: ≥ 1000 fold
Kd [2]: 22.9 pM
Kd [3]: 53 pM
koff [4]: 0.0333 s⁻¹
kon [4]: 629000 M⁻¹ s⁻¹
koff [5]: 0.000205 s⁻¹
kon [5]: 8.98e+06 M⁻¹ s⁻¹
B1: antibody A-F(ab')2 (other, not shown: a dimerising Fc or GST)
heavy: QIQLVQSGPELKKPGETVKISCKASGYTFTDYSMHWVKQAPGKGLKWMGWINTETGEPTYADDFKGRFAFSLETSASTAYLQINNLKNEDTATYFCARIPLYYYGSRYWYFDVWGAGTTVTVSS
light: DIQMTQSPASLSVSVGETVTITCRASENIYRNLAWYQQKQGKSPQLLVYAATNLADGVPSRFSGSGSGTQYSLKINSLQSEDFGSYYCQHFWGTPWTFGGGTKLEIKRADAAPTVSIFPPSSEQLTSGGASVVCFLNNFYPKDINVKWKIDGSERQNGVLNSWTDQDSKDSTYSMSSTLTLTKDEYERHNSYTCEATHKTSTSPIVKSFNRNEC
notes: made by pepsin digestion of antibody A; also called F(ab')2 fragment of antibody A
